In patent US20250215098A1 (QYUNS THERAPEUTICS, published 2025):

T1: human IL-36R on HT29 cells, HT29 reporter gene cells, A431 cells and human PBMC (human, UniProt Q9HB29 20-575)
T1 sequence (looked up): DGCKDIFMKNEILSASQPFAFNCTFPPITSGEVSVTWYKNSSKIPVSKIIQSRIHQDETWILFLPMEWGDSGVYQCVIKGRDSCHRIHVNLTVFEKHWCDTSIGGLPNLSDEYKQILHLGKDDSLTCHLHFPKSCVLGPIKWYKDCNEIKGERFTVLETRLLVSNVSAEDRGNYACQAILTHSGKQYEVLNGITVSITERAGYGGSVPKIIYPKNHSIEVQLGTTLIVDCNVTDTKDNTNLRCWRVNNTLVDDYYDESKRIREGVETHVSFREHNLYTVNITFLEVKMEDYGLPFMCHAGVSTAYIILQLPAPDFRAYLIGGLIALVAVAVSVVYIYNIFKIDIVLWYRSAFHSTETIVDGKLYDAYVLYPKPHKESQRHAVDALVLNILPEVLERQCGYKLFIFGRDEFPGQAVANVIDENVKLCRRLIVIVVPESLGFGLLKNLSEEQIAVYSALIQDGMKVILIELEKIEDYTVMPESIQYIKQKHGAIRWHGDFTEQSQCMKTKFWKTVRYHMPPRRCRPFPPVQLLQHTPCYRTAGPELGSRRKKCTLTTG

B1: QX009N (HZD25-54) (antibody, human IgG1, kappa, L234A L235A, V domains shown)
VH: EVQLVESGGGLVQPGGSLRLSCAASGIDLSNYAMGWVRQAPGKGLEWVGYISGGGSAYYASWAKGRFTISRDNSKNTLYLQMNSLRAEDTAVYYCARWAIKSYFFGMDLWGQGTLVTVSS
VL: DIQMTQSPSSVSASVGDRVTITCQASEYISSYLAWYQQKPGKAPKLLIYQASTLASGVPSRFSGSGSGTDFTLTISSLQPEDFATYYCQTNNAIHTYGGAFGGGTKVEIKR
B2: Spesolimab (expressed from the B6 sequence of patent US9023995B2) (antibody, V domains shown)
VH: QVQLVQSGAEVKKPGASVKVSCKASGYSFTSSWIHWVKQAPGQGLEWMGEINPGNVRTNYNENFRNKVTMTVDTSISTAYMELSRLRSDDTAVYYCTVVFYGEPYFPYWGQGTLVTVSS
VL: QIVLTQSPGTLSLSPGERATMTCTASSSVSSSYFHWYQQKPGQAPRLWIYRTSRLASGVPDRFSGSGSGTDFTLTISRLEPEDAATYYCHQFHRSPLTFGAGTKLEIK

Target: T1, human IL-36R on HT29 cells, HT29 …
Assay: cell-based or functional assay

Binder | IC50 in inhibiting CXCL-1 release from A431 cells induced by the human IL-36 (α, β, γ) [ng/mL] | IC50 in inhibiting CXCL-1 release from HT29 cells induced by the human IL-36 (α, β, γ) [ng/mL] | IC50 in inhibiting IL-8 release from A431 cells induced by the human IL-36 (α, β, γ) [ng/mL] | IC50 in inhibiting IL-8 release from HT29 cells induced by the human IL-36 (α, β, γ) [ng/mL] | IC50 in inhibiting IL-8 release from human PBMC cells induced by the human IL-36β [ng/mL] | IC50 in inhibiting STAT3 phosphorylation in HT29 reporter cells induced by human IL-36 (α, β, γ) [ng/mL]
B1 | 4.12 | 2.21 | 2.89 | 1.53 | 4.69 | 2.16
B2 | 12.3 | 12.3 | 11.5 | 11.5 | 26.6 | 15.7
